Usually Kd stands for the concentration at which binding is half-saturated.

Where no end group is shown, it is not given here. [ ]: non-standard residue; d: D form. pT = C[C@@H](OP(=O)(O)O)[C@H](N)C(=O)O

Consider 3 molecules from publication PMC2796330 (Molecular cell, 2009).

One experiment has as its target Smurf1 WW2 domain. The experiment is described as follows: ITC. On the technique in general: ITC needs no label: the signal is the heat of the interaction.
Experiment [1] concerns the target recombinant Nedd4L WW2 domain. The experiment is described as follows: ITC.

Chain of recombinant Nedd4L WW2 domain (Q96PU5 whole entry, the tested form may be a part): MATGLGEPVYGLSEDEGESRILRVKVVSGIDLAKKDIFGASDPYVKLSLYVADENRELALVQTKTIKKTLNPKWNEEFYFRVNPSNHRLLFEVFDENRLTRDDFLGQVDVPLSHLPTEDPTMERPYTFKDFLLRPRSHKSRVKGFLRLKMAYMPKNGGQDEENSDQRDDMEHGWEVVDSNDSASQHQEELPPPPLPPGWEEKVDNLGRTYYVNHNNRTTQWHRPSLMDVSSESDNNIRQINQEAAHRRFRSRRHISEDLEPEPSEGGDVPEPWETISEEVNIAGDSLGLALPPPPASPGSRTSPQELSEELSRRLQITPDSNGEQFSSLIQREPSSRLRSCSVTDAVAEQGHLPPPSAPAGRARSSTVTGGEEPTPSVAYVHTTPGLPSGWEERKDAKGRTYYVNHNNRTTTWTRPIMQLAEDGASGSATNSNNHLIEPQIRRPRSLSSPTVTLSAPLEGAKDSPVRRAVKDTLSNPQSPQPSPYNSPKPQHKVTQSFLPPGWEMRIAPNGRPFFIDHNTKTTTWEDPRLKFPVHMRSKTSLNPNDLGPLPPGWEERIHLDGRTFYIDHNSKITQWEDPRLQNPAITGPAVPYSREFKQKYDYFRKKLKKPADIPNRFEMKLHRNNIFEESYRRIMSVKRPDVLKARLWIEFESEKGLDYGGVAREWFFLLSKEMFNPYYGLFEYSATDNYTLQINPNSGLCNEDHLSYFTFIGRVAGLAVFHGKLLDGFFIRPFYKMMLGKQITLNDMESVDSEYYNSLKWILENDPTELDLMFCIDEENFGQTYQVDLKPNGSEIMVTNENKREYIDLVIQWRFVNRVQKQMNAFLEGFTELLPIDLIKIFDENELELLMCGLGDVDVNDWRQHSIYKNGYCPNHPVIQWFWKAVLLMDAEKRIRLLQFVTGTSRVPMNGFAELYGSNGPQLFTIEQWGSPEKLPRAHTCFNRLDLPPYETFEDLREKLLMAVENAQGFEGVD
Chain of Smurf1 WW2 domain (Q9HCE7 whole entry, the tested form may be a part): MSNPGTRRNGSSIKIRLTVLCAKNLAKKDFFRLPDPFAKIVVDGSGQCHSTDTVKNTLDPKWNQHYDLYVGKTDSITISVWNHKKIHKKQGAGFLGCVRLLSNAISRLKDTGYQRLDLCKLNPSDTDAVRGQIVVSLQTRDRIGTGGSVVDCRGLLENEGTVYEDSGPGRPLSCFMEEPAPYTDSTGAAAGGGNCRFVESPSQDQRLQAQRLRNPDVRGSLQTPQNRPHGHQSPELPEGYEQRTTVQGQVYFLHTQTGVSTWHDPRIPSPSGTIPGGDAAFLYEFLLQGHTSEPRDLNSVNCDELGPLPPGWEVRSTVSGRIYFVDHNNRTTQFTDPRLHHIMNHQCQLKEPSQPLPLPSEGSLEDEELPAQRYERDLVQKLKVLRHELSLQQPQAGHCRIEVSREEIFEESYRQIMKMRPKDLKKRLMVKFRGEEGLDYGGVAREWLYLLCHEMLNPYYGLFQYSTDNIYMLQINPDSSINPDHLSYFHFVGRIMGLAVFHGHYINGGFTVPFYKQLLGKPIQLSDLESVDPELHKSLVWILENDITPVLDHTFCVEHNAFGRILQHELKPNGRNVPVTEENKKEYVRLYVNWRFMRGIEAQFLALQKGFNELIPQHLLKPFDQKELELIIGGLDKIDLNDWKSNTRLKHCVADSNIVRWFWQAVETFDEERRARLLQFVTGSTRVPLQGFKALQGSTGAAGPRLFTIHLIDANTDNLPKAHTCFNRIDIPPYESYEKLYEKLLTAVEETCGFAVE

Take PADTPPPAYLPPE [Smad1 T-PY motif peptide]: the Kd with Smurf1 WW2 domain is 32 µM. Consider IPE[pT]PPPGYISED [Smad2 pT-PY motif peptide (phosphothreonine)], for which, in experiment [1], the Kd was 7.8 µM. Regarding IPE[pT]PPPGYLSED [Smad3 pT-PY motif peptide (phosphothreonine)], the dissociation constant Kd with Smurf1 WW2 domain was 36 µM; in experiment [1], 4.1 µM.
